Measurements: patent US20040053819A1

Target: human GLP-1 receptor (human) (UniProt P43220)
Test: cell-based or functional assay

human GLP-1 receptor (human), sequence (P43220 24-463): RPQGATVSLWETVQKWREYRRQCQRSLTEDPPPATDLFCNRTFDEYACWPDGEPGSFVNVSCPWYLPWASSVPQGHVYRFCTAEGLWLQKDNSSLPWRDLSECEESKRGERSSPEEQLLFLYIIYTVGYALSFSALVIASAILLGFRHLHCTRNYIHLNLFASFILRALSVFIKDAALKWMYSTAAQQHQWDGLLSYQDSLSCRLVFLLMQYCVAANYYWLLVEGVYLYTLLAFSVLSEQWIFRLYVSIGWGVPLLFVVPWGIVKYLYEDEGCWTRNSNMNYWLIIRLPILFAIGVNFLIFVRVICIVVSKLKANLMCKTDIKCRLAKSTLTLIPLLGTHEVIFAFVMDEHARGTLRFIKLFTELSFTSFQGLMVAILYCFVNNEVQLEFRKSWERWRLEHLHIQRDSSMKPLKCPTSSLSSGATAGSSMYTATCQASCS

Substance | In vitro activity relative to Val^8-GLP-1(7-37)OH (EC50 potency, CRE-BLAM β-lactamase reporter in HEK-293 cells expressing human GLP-1 receptor) (fold relative to Val^8-GLP-1(7-37)OH)
Arg^34Lys^26-(N-ε-(γ-Glu(N-α-hexadecanoyl)))-GLP-1(7-37) (peptide) | 1.92
GLP-1(7-37)OH (peptide) | 2.06
Gly^8-GLP-1(7-37)OH (peptide) | 1.67
Val^8-Ala^27-GLP-1(7-37)OH (peptide) | 1
Val^8-Arg^26-GLP-1(7-37)OH (peptide) | 1.47
Val^8-GLP-1(7-36)NH2 (peptide) | 1.06
Val^8-GLP-1(7-37)OH (peptide) | 1
Val^8-Glu^22-GLP-1(7-37)OH (peptide) | 3.33
Val^8-Leu^16-GLP-1(7-37)OH (peptide) | 1.13
Val^8-Lys^22-GLP-1(7-37)OH (peptide) | 1.22
Val^8-Trp^12-GLP-1(7-37)OH (peptide) | 1.07
Val^8-Tyr^12-GLP-1(7-37)OH (peptide) | 1.73
